Patent US20230265151A1, “GIP/GLP1 CO-AGONIST COMPOUNDS” (priority 2020, published 2023)

T1: human GIP receptor (human, UniProt P48546 22-466)
T1 sequence (looked up): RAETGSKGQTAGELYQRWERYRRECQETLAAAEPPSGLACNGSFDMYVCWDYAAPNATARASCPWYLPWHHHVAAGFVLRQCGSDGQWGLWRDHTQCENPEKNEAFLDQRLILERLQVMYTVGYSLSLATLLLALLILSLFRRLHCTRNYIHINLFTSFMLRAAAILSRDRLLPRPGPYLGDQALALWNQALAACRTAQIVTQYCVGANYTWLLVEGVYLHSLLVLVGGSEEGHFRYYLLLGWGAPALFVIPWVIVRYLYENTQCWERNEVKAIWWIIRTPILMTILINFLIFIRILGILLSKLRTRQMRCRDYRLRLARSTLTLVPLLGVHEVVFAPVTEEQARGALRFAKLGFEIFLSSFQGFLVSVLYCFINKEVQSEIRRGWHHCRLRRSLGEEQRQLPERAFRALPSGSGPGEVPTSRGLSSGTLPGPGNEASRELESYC

B1: Example 470 (peptide)
peptide: YXEGTXTSDXXIXLDXQAQXXFIKXLIKGGPSSGAPPPS
modifications: Y-Aib-EGT-αMeF(2F)-TSD-4Pal-Aib-I-αMeL-LD-Orn-QAQ-Aib-Orn-FIK((2-[2-(2-Amino-ethoxy)-ethoxy]-acetyl)2--Trx-(γ-Glu)-CO-(CH2)12-CO2H)-αMeY-LIK(((2-[2-(2-Amino-ethoxy)-ethoxy]-acetyl)2--Trx(γ-Glu)-CO-(CH2)12-CO2H)GGPSSGAPPPS-NH2)
B2: Example 476 (peptide)
peptide: YXEGTXTSDXXIXLDXQAQXXFIKXLIKGGPSSGAPPPS
modifications: Y-Aib-EGT-αMeF(2F)-TSD-4Pal-Aib-I-αMeL-LD-Orn-QAQ-Aib-Orn-FIK((2-[2-(2-Amino-ethoxy)-ethoxy]-acetyl)3-(γ-Glu)-CO-(CH2)12-CO2H)-αMeY-LIK((2-[2-(2-Amino-ethoxy)-ethoxy]-acetyl)3-(γ-Glu)-CO-(CH2)12-CO2H)GGPSSGAPPPS-NH2
B3: Example 469 (peptide)
peptide: YXEGTXTSDXXIXLDXQAQXXFIKXLIKGGPSSGAPPPS
modifications: Y-Aib-EGT-αMeF(2F)-TSD-4Pal-Aib-I-αMeL-LD-Orn-QAQ-Aib-Orn-FIK(PEG5-(γ-Glu)-(10-(4-carboxyphenoxy)decanoyl))-αMeY-LIK(PEG5-(γ-Glu)-(10-(4-carboxyphenoxy)decanoyl))GGPSSGAPPPS-NH2
B4: Example 468 (peptide)
peptide: YXEGTXTSDXXIXLDXQAQXXFIKXLIKGGPSSGAPPPS
modifications: Y-Aib-EGT-αMeF(2F)-TSD-4Pal-Aib-I-αMeL-LD-Orn-QAQ-Aib-Orn-FIK(PEG6-(γ-Glu)-(10-(4-carboxyphenoxy)decanoyl))-αMeY-LIK(PEG6-(γ-Glu)-(10-(4-carboxyphenoxy)decanoyl))GGPSSGAPPPS-NH2
B5: Example 467 (peptide)
peptide: YXEGTXTSDXXIXLDXQAQXXFIKXLIKGGPSSGAPPPS
modifications: Y-Aib-EGT-αMeF(2F)-TSD-4Pal-Aib-I-αMeL-LD-Orn-QAQ-Aib-Orn-FIK(PEG5-(γ-Glu)-CO-(CH2)12-CO2H)-αMeY-LIK(PEG5-(γ-Glu)-CO-(CH2)12-CO2H)GGPSSGAPPPS-NH2
B6: Example 474 (peptide)
peptide: YXEGTXTSDXXIXLDXQAQXXFIKXLIKGGPSSGAPPPS
modifications: Y-Aib-EGT-αMeF(2F)-TSD-4Pal-Aib-I-αMeL-LD-Orn-QAQ-Aib-Orn-FIK((2-[2-(2-Amino-ethoxy)-ethoxy]-acetyl)2-(γ-Glu)2-CO-(CH2)12-CO2H)-αMeY-LIK((2-[2-(2-Amino-ethoxy)-ethoxy]-acetyl)2-(γ-Glu)2-CO-(CH2)12-CO2H)GGPSSGAPPPS-NH2
B7: Example 462 (peptide)
peptide: YXEGTXTSDXXIXLDXQAQXXFIKXLIKGGPSSGAPPPS
modifications: Y-Aib-EGT-αMeF(2F)-TSD-4Pal-Aib-I-αMeL-LD-Orn-QAQ-Aib-Orn-FIK(PEG3-(γ-Glu)-(10-(4-carboxyphenoxy)decanoyl))-αMeY-LIK(PEG3-(γ-Glu)-(10-(4-carboxyphenoxy)decanoyl))GGPSSGAPPPS-NH2
B8: Example 473 (peptide)
peptide: YXEGTXTSDXXIXLDXQAQXXFIKXLIKGGPSSGAPPPS
modifications: Y-Aib-EGT-αMeF(2F)-TSD-4Pal-Aib-I-αMeL-LD-Orn-QAQ-Aib-Orn-FIK((2-[2-(2-Amino-ethoxy)-ethoxy]-acetyl)-Trx-(γ-Glu)-(10-(4-carboxyphenoxy)decanoyl))-αMeY-LIK(((2-[2-(2-Amino-ethoxy)-ethoxy]-acetyl)-Trx-(γ-Glu)-(10-(4-carboxyphenoxy)decanoyl))GGPSSGAPPPS-NH2)
B9: Example 456 (peptide)
peptide: YXEGTXTSDXXIXLDXQAQXXFIKXLIKGGPSSGAPPPS
modifications: Y-Aib-EGT-αMeF(2F)-TSD-4Pal-Aib-I-αMeL-LD-Orn-QAQ-Aib-Orn-FIK(Aoc-(2-[2-(2-Amino-ethoxy)-ethoxy]-acetyl)-(γ-Glu)-(10-(4-carboxyphenoxy)decanoyl))-αMeY-LIK(Aoc-(2-[2-(2-Amino-ethoxy)-ethoxy]-acetyl)-(γ-Glu)-(10-(4-carboxyphenoxy)decanoyl))GGPSSGAPPPS-NH2
B10: Example 459 (peptide)
peptide: YXEGTXTSDXXIXLDXQAQXXFIKXLIKGGPSSGAPPPS
modifications: Y-Aib-EGT-αMeF(2F)-TSD-4Pal-Aib-I-αMeL-LD-Orn-QAQ-Aib-Orn-FIK((2-[2-(2-Amino-ethoxy)-ethoxy]-acetyl)-(γ-Glu)-CO-(CH2)12-CO2H)-αMeY-LIK((2-[2-(2-Amino-ethoxy)-ethoxy]-acetyl)-(γ-Glu)-CO-(CH2)12-CO2H)GGPSSGAPPPS-NH2
B11: Example 477 (peptide)
peptide: YXEGTXTSDXXIXLDXQAQXXFIKXLIKGGPSSGAPPPS
modifications: Y-Aib-EGT-αMeF(2F)-TSD-4Pal-Aib-I-αMeL-LD-Orn-QAQ-Aib-Orn-FIK((2-[2-(2-Amino-ethoxy)-ethoxy]-acetyl)3-(γ-Glu)--(10-(4-carboxyphenoxy)decanoyl))-αMeY-LIK((2-[2-(2-Amino-ethoxy)-ethoxy]-acetyl)3-(γ-Glu)--(10-(4-carboxyphenoxy)decanoyl))GGPSSGAPPPS-NH2
B12: Example 463 (peptide)
peptide: YXEGTXTSDXXIXLDXQAQXXFIKXLIKGGPSSGAPPPS
modifications: Y-Aib-EGT-αMeF(2F)-TSD-4Pal-Aib-I-αMeL-LD-Orn-QAQ-Aib-Orn-FIK((2-[2-(2-Amino-ethoxy)-ethoxy]-acetyl)-(γ-Glu)-(10-(4-carboxyphenoxy)decanoyl))-αMeY-LIK((2-[2-(2-Amino-ethoxy)-ethoxy]-acetyl)-(γ-Glu)-(10-(4-carboxyphenoxy)decanoyl))GGPSSGAPPPS-NH2
B13: Example 455 (peptide)
peptide: YXEGTXTSDXXIXLDXQAQXXFIKXLIKGGPSSGAPPPS
modifications: Y-Aib-EGT-αMeF(2F)-TSD-4Pal-Aib-I-αMeL-LD-Orn-QAQ-Aib-Orn-FIK(Ahx-(2-[2-(2-Amino-ethoxy)-ethoxy]-acetyl)-(γ-Glu)-(10-(4-carboxyphenoxy)decanoyl))-αMeY-LIK(Ahx-(2-[2-(2-Amino-ethoxy)-ethoxy]-acetyl)-(γ-Glu)-(10-(4-carboxyphenoxy)decanoyl))GGPSSGAPPPS-NH2
B14: Example 472 (peptide)
peptide: YXEGTXTSDXXIXLDXQAQXXFIKXLIKGGPSSGAPPPS
modifications: Y-Aib-EGT-αMeF(2F)-TSD-4Pal-Aib-I-αMeL-LD-Orn-QAQ-Aib-Orn-FIK((2-[2-(2-Amino-ethoxy)-ethoxy]-acetyl)-Trx-(γ-Glu)-CO-(CH2)12-CO2H)-αMeY-LIK(((2-[2-(2-Amino-ethoxy)-ethoxy]-acetyl)-Trx-(γ-Glu)-CO-(CH2)12-CO2H)GGPSSGAPPPS-NH2)

What was measured:
Assay in all cases: cell-based or functional assay
human GIP receptor = molecular target: T1, human GIP receptor
human glucagon receptor = human glucagon receptor (human, UniProt P47871 26-477)
Sequence of human glucagon receptor (P47871 26-477): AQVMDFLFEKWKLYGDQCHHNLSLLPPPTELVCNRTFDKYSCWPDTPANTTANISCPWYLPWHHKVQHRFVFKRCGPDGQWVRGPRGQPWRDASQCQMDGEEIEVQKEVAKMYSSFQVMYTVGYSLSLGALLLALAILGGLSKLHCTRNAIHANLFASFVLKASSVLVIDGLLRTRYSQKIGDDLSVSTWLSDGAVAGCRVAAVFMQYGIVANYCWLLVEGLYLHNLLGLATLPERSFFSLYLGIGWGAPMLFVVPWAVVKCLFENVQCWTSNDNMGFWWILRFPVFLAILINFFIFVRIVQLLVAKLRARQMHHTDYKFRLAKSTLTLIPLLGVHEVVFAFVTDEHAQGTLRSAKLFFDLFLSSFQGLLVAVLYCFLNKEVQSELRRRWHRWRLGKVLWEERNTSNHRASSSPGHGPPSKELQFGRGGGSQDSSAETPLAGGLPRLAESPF

human GLP-1 receptor = human GLP-1 receptor (human, UniProt P43220 24-463)

Row | Binder | cAMP EC50 (1.0% HSA) (human GIP receptor) [nM] | cAMP EC50 (1.0% HSA) (human glucagon receptor) [nM] | cAMP EC50 (1.0% HSA) (human GLP-1 receptor) [nM] | cAMP Emax (1.0% HSA) (human GIP receptor) [%]
1 | B1 | 0.719 | > 9950 | 4.54 | –
2 | B2 | 0.154 | > 9950 | 1.5 | –
3 | B3 | 0.203 | > 9950 | 2.33 | –
4 | B4 | 0.222 | > 10100 | 1.84 | –
5 | B5 | 0.35 | > 10100 | 2.87 | –
6 | B6 | 0.156 | > 9950 | 1.1 | –
7 | B7 | 0.317 | > 9950 | 3.34 | –
8 | B8 | 0.979 | > 9950 | 7.07 | –
9 | B9 | 0.878 | > 9950 | 14.7 | –
10 | B10 | 0.323 | > 9950 | 4.87 | –
11 | B11 | 0.163 | > 9950 | 1.56 | –
12 | B12 | 0.35 | > 9950 | 4.09 | –
13 | B13 | 0.362 | > 9950 | 5.24 | –
14 | B14 | 0.663 | > 9950 | 7.41 | 76.3
